Test results: the supplement of paper PMC10567573

B1: CDC34 (parent)
chain: GGYFKARLKFPIDYPYSPPAFRFL

Variants of: B1
Test: protein stability index of a GFP-peptide fusion (GPS, HEK-293T) (PSI 1-6); higher = more stable
Conditions: c terminus: a fixed tail appended
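Note: lentivirally expressed fusions sorted by FACS into six bins by GFP to DsRed ratio, PSI derived from sequencing read proportions per bin multiplied by bin number.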

Row | Variant | protein stability index
1 | A20F | 3.14
2 | A20M | 3.57
3 | A20K | 3.03
4 | A20C | 1.71
5 | A20W | 2.98
6 | A20V | 2.96
7 | A20E | 3.68
8 | A20R | 3.03
9 | A20Q | 2.41
10 | A20D | 2.18
11 | A20G | 2.29
12 | A20S | 2.54
13 | A20I | 3.02
14 | A20L | 2.52
15 | A20H | 3.05
16 | A20T | 2.95
17 | A6E | 2.33
18 | A6Q | 1.71
19 | A6T | 2.76
20 | A6N | 3.51
21 | A6M | 3.74
22 | A6R | 3.77
23 | A6Y | 3.56
24 | A6V | 2.15

Row | Variant | protein stability index
25 | A6K | 3.08
26 | A6L | 2.36
27 | A6S | 2.47
28 | A6D | 2.1
29 | A6W | 3.16
30 | A6G | 3.12
31 | A6H | 3.08
32 | A6P | 2.13
33 | A6I | 1.94
34 | A6F | 3.63
35 | R7C | 2.9
36 | R7E | 2.77
37 | R7L | 2.38
38 | R7D | 1.96
39 | R7N | 2.57
40 | R7H | 3.7
41 | R7S | 2.3
42 | R7I | 2.78
43 | R7M | 2.51
44 | R7A | 1.8
45 | R7G | 2.45
46 | R7V | 3.25
47 | R7K | 3.83
48 | R7W | 3.18

Row | Variant | protein stability index
49 | R7Q | 1.72
50 | Y3S | 1.54
51 | Y3H | 3.02
52 | Y3L | 2.32
53 | Y3R | 3.15
54 | Y3A | 2.68
55 | Y3Q | 3.35
56 | Y3I | 2.63
57 | Y3G | 1.63
58 | Y3T | 2.39
59 | Y3F | 1.77
60 | Y3V | 2.61
61 | Y3E | 1.29
62 | Y3C | 3.72
63 | Y3W | 2.33
64 | Y3M | 2.46
65 | Y3K | 3.54
66 | Y3N | 2.44
67 | Y3P | 3.03
68 | P11T | 2.28
69 | P11Y | 3.2
70 | P11S | 3.37
71 | P11C | 3.95
72 | P11I | 2.84

Row | Variant | protein stability index
73 | P11N | 3.45
74 | P11E | 2.75
75 | P11M | 3.98
76 | P11L | 4.07
77 | P11D | 2.06
78 | P11W | 2.87
79 | P11A | 2.77
80 | P11K | 2.13
81 | P11R | 2.99
82 | P11G | 2.07
83 | P18D | 2.34
84 | P18G | 2.4
85 | P18N | 2.51
86 | P18Y | 2.48
87 | P18E | 2.34
88 | P18F | 2.42
89 | P18M | 2.19
90 | P18W | 2.38
91 | P18K | 3.31
92 | P18S | 3.15
93 | P18Q | 3.79
94 | P18H | 2.33
95 | P18L | 2.54
96 | P18C | 3.4

Row | Variant | protein stability index
97 | P18A | 2.96
98 | Y16I | 3.09
99 | Y16A | 2.38
100 | Y16C | 2.73
101 | Y16T | 2.81
102 | Y16W | 2.43
103 | Y16E | 2.23
104 | Y16H | 3.2
105 | Y16K | 3.31
106 | Y16D | 1.57
107 | Y16R | 2.6
108 | Y16F | 2.86
109 | Y16V | 3.55
110 | Y16L | 2.18
111 | Y16N | 2.71
112 | Y16S | 2.6
113 | Y16G | 2.83
114 | Y16M | 1.99
115 | F10W | 3.49
116 | F10E | 2.66
117 | F10R | 2.94
118 | F10S | 3.88
119 | F10V | 2.97
120 | F10H | 3.49

Row | Variant | protein stability index
121 | F10Q | 1.76
122 | F10I | 2.44
123 | F10M | 2.53
124 | F10G | 2.75
125 | F10N | 3.08
126 | F10C | 2.89
127 | F10Y | 2.87
128 | F10D | 3.29
129 | K9E | 3.56
130 | K9Q | 2.55
131 | K9M | 1.82
132 | K9S | 3.19
133 | K9I | 3.15
134 | K9P | 2.57
135 | K9F | 3.11
136 | K9D | 2.43
137 | K9T | 2.11
138 | K9G | 2.29
139 | K9Y | 3.41
140 | K9H | 3.05
141 | K9W | 2.66
142 | K9L | 3.67
143 | K9N | 2.39
144 | K9R | 3.6

Row | Variant | protein stability index
145 | K9A | 2.74
146 | G1V | 2.45
147 | G1D | 1.94
148 | G1K | 2.88
149 | G1Y | 2.68
150 | G1R | 2.45
151 | G1F | 2.55
152 | G1H | 2.91
153 | G1C | 2.8
154 | G1P | 2.61
155 | G1T | 3.19
156 | G1S | 3.14
157 | G1M | 3.53
158 | G1I | 3.18
159 | G1W | 2.88
160 | G1N | 3.03
161 | G1A | 2.86
162 | G1E | 1.58
163 | G1Q | 2.39
164 | P15A | 3.19
165 | P15S | 3.76
166 | P15D | 3.29
167 | P15W | 2.9
168 | P15F | 3.14

Row | Variant | protein stability index
169 | P15H | 3.92
170 | P15Q | 2.06
171 | P15Y | 2.56
172 | P15M | 3.04
173 | P15N | 2.31
174 | P15G | 2.62
175 | P15E | 2.84
176 | P15C | 3.05
177 | P15V | 2.21
178 | P15L | 2.92
179 | P15I | 2.75
180 | P15T | 2.51
181 | S17N | 3.85
182 | S17H | 3.25
183 | S17W | 2.82
184 | S17D | 2.77
185 | S17V | 4.24
186 | S17R | 3.12
187 | S17E | 3.71
188 | S17Y | 2.44
189 | S17K | 3.04
190 | S17Q | 2.58
191 | S17I | 3.04
192 | S17M | 2.9

Row | Variant | protein stability index
193 | S17F | 2.93
194 | S17G | 2.85
195 | F4M | 2.51
196 | F4Q | 1.75
197 | F4T | 1.94
198 | F4K | 3.11
199 | F4E | 2.79
200 | F4C | 3.82
201 | F4L | 3.57
202 | F4W | 1.73
203 | F4S | 3.07
204 | F4H | 1.96
205 | F4Y | 2.38
206 | F4N | 2.72
207 | F4R | 2.76
208 | F4A | 2.97
209 | F4V | 3.17
210 | F4P | 1.54
211 | F4D | 2
212 | L8F | 3.29
213 | L8E | 2.3
214 | L8W | 2.65
215 | L8H | 2.54
216 | L8P | 2.19

Row | Variant | protein stability index
217 | L8Q | 2.35
218 | L8I | 3.42
219 | L8G | 3.75
220 | L8Y | 1.53
221 | L8K | 2.48
222 | L8S | 2.89
223 | L8C | 2.65
224 | L8D | 2.24
225 | L8R | 1.25
226 | L8A | 2.66
227 | L8V | 2.53
228 | L8M | 3.8
229 | P19I | 2.56
230 | P19M | 3.23
231 | P19L | 3.41
232 | P19V | 2.35
233 | P19H | 2.67
234 | P19Q | 2.55
235 | P19A | 2.29
236 | P19E | 2.21
237 | P19T | 3.29
238 | P19N | 3.27
239 | P19D | 2.21
240 | P19W | 3.02

Row | Variant | protein stability index
241 | P19K | 2.99
242 | P19S | 2.64
243 | P19Y | 4.32
244 | P19C | 3.03
245 | P19R | 3.69
246 | P19F | 2.96
247 | F21N | 1.88
248 | F21C | 2.55
249 | F21K | 2.16
250 | F21S | 1.54
251 | F21E | 1.65
252 | F21D | 2.34
253 | F21M | 2.15
254 | F21I | 2.48
255 | F21A | 2.57
256 | F21G | 3.19
257 | F21Q | 3.14
258 | F21R | 2.82
259 | K5Q | 3.03
260 | K5P | 1.98
261 | K5F | 3.5
262 | K5N | 2.89
263 | K5A | 2.24
264 | K5E | 2.79

Row | Variant | protein stability index
265 | K5R | 2.71
266 | K5M | 3.16
267 | K5I | 2.76
268 | K5H | 2.61
269 | K5C | 2.85
270 | K5S | 3.33
271 | K5T | 2.69
272 | K5V | 3.61
273 | K5D | 2.63
274 | D13A | 3.56
275 | D13Q | 2.73
276 | D13K | 3.03
277 | D13W | 2.7
278 | D13N | 2.64
279 | D13H | 3.16
280 | D13E | 1.97
281 | D13T | 2.82
282 | D13R | 3.03
283 | D13L | 3.38
284 | D13V | 3.06
285 | D13F | 3.1
286 | D13C | 2.51
287 | D13I | 3.04
288 | D13M | 1.68

Row | Variant | protein stability index
289 | D13G | 4.23
290 | D13S | 2.34
291 | I12W | 2.12
292 | I12M | 1.39
293 | I12E | 2.83
294 | I12C | 2.64
295 | I12L | 2.49
296 | I12G | 3.83
297 | I12Y | 3.17
298 | I12N | 2.22
299 | I12K | 2.61
300 | I12V | 1.8
301 | I12F | 3.1
302 | I12R | 1.7
303 | I12S | 3.06
304 | G2V | 3.03
305 | G2D | 2.29
306 | G2I | 3.05
307 | G2Q | 2.77
308 | G2W | 2.23
309 | G2M | 2.92
310 | G2P | 3.31
311 | G2L | 2.2
312 | G2C | 2.22

Row | Variant | protein stability index
313 | G2E | 1.94
314 | G2A | 3.13
315 | G2Y | 3
316 | G2F | 2.03
317 | G2T | 3.26
318 | G2K | 1.9
319 | G2N | 2.68
320 | G2H | 3.54
321 | G2S | 2.18
322 | Y14M | 2.8
323 | Y14I | 2.16
324 | Y14D | 3.03
325 | Y14R | 2.09
326 | Y14N | 2.47
327 | Y14S | 4.54
328 | Y14V | 2.7
329 | Y14E | 2.06
330 | Y14L | 2.75
331 | Y14K | 2.75
332 | Y14Q | 1.82
333 | Y14G | 1.88
334 | Y14C | 2.57
